Legend:
Assay in all cases: Der pI substrate assay with FRET peptides (fluorescence, Km, kcat/Km)
Format in all cases: biochemical, house dust mite
Conditions in all cases: other: purified Der pI; peptides SEQ ID Nos. 1-76; pH 8.25
[1] = substrate: CC(C)CC[C@H](NC(=O)[C@H](C)NC(=O)[C@H](CCC(N)=O)NC(=O)c1ccccc1N)C(=O)N[C@@H](CO)C(=O)N[C@@H](Cc1ccc(O)c([N+](=O)[O-])c1)C(=O)N[C@@H](CC(=O)O)C(N)=O
Description: (§1) Using the general techniques described above, the following compounds were prepared and assayed as potential substrates against Der pI purified as described above.
(§2) Each mixture of 20 compounds in the libraries of the apparatus described herein was screened at a concentration of 1.0 μM per compound in an assay against the cysteinyl protease Der pI.
(§3) Plate assays were carried out in 96 well plate format, using 0.1 ug of Der pI per 100 μL assay volume in each well and using 20 μM of the substrate. All assays were performed in Assay Buffer (AB; 50 mM potassium phosphate, pH 8.25 containing 1 mM ethylenediaminetetraacetic acid (EDTA) and 1 mM dithiothreitol (DTT). The Der pI enzyme is pre-activated by addition of DTT and this in incubated at room temperature for 5 min. prior to initiation of the assay. As an example for the screening methodology, each well contains a 5 μL of a 20 μM solution of the test compound in DMSO, 10 μL of a 200 μM aqueous solution of the substrate, 2, and 85 μL of Der pI in AB is added to initiate the reaction. Enzyme activity is monitored by fluorescence using 320 nm for excitation and 420 nm for the emission wavelengths using a Labsystems Fluroskan Ascent machine. Kinetic measurements were carried out using a Hitachi F-4500 Fluorescence Spectrophotometer.

[2] = substrate: CC(C)CC[C@H](NC(=O)[C@H](C)NC(=O)[C@H](Cc1ccc(-c2ccccc2)cc1)NC(=O)c1ccccc1N)C(=O)N[C@@H](Cc1cccnc1)C(=O)N[C@@H](Cc1ccc(O)c([N+](=O)[O-])c1)C(=O)N[C@@H](CC(=O)O)C(N)=O
Description: as §1, §2, §3

[3] = substrate: CC(C)[C@H](NC(=O)c1ccccc1N)C(=O)N[C@@H](C)C(=O)N[C@@H](CC1CCCCC1)C(=O)N[C@@H](CO)C(=O)N[C@@H](Cc1ccc(O)c([N+](=O)[O-])c1)C(=O)N[C@@H](CC(=O)O)C(N)=O
Description: as §1, §2, §3

[4] = substrate: CCCC[C@H](NC(=O)[C@H](C)NC(=O)[C@@H](NC(=O)[C@H](Cc1cccc2ccccc12)NC(=O)c1ccccc1N)C(C)C)C(=O)N[C@@H](CO)C(=O)N[C@@H](Cc1ccc(O)c([N+](=O)[O-])c1)C(=O)N[C@@H](CC(=O)O)C(N)=O
Description: as §1, §2, §3

B1: Der pI (Dermatophagoides pteronyssinus) (protein)
chain: TNACSINGNAPAEIDLRQMRTVTPIRMQGGCGSCWAFSGVAATESAYLAYRNQSLDLAEQELVDCASQHGCHGDTIPRGIEYIQHNGVVQESYYRYVAREQSCRRPNAQRFGISNYCQIYPPNVNKIREALAQTHSAIAVIIGIKDLDAFRHYDGRTIIQRDNGYQPNYHAVNIVGYSNAQGVDYWIVRNSWDTNWGDNGYGYFAANIDLMMIEEYPYVVIL
notes: tissue SmithKline-Beecham, U.K (crude mite extract); host or cells: crude house dust mite extract
Work on B1 yielded a Km [1] of 12 µM, a Km [2] of 4 µM and a Km [3] of 5 µM. For the same protein, the Km [4] was 17 µM.

From patent publication US6528275B1, “Substrates and inhibitors of proteolytic enzymes” (Peptide Therapeutics Limited, priority 1996, dated 2003)
